Data as given in PMC11093599 (The Journal of Clinical Investigation, 2024).

T1: AARS1^455 (Homo sapiens, UniProt P49588)
T1 construct: catalytic domain, residues 1-455, purified recombinant; tags and host only in supplement
T1 sequence (P49588 1-455): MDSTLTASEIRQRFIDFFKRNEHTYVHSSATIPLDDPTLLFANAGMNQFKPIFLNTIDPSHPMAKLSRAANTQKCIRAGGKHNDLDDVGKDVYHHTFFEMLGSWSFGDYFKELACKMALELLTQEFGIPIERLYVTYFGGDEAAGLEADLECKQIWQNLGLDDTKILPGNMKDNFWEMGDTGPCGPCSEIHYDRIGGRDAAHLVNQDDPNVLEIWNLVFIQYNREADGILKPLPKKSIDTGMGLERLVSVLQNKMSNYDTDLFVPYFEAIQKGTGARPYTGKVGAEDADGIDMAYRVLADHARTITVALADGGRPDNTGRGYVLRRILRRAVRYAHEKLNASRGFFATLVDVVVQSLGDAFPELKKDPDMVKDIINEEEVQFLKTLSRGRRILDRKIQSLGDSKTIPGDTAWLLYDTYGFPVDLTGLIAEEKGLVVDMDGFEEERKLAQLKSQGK

B1: AARS1 promoter probe (dsDNA)
DNA 1: CAGACAGGGCCTCGCTCTGTCGCCCAAGGAATGCAGTGTCACGATCAGGGCTCACTGCAG
DNA 2: CTGCAGTGAGCCCTGATCGTGACACTGCATTCCTTGGGCGACAGAGCGAGGCCCTGTCTG

Experiments:
[1] = target: T1, AARS1^455; experiment: in vitro histone lactylation, pan-Klac immunoblot / mass spectrometry; assay type: biochemical; conditions: lactate and ATP present; dose-dependent; construct in Supplemental Figure 1F not told
[2] = target: YAP (1-291) (UniProt P46937 1-291); experiment: EMSA; YAP alone; 10 mM Tris-HCl pH 7.5, 50 mM KCl, 1 mM DTT, 2% glycerol, 25 C, 1 h; conditions: protein: recombinant; tags: MBP
[3] = target: TEAD1;YAP (1-291) (human?;human?, UniProt P28347;P46937 1-426;1-291, |); experiment: EMSA; supershift of probe by YAP-TEAD1; 10 mM Tris-HCl pH 7.5, 50 mM KCl, 1 mM DTT, 2% glycerol, 25 C, 1 h; conditions: protein: recombinant;recombinant; (HS-TEAD1 in pull-down); copies: 1;1
[4] = target: TEAD1 (UniProt P28347 1-426); experiment: EMSA; 10 mM Tris-HCl pH 7.5, 50 mM KCl, 1 mM DTT, 2% glycerol, 25 C, 1 h; conditions: protein: recombinant; (HS-TEAD1 in pull-down)
TEAD1, sequence (P28347 whole entry): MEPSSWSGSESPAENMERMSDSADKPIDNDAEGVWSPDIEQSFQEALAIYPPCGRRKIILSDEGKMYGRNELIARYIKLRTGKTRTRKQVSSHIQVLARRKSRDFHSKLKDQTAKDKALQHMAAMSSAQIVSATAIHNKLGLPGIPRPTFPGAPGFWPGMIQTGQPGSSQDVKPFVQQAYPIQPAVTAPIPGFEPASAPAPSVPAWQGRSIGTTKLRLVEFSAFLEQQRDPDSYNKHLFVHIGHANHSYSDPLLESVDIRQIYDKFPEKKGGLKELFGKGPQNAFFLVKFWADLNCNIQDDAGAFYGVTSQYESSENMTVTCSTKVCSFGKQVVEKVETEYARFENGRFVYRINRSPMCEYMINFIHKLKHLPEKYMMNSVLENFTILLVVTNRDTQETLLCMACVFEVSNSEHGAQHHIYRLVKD

Molecule | inhibition [1] | binding result [2] | binding result [3] | binding result [4]
Nc1ncnc2c1ncn2[C@@H]1O[C@H](COP(=O)(O)O)[C@@H](O)[C@H]1O [AMP] | inclusion of PPi, AMP, and the synthetic lactyl-AMS |  |  | 
O=P(O)(O)OP(=O)(O)O [PPi] | inclusion of PPi, AMP, and the synthetic lactyl-AMS |  |  | 
B1 |  | no binding | binds | binds
